From publication PMC3429642 come the findings set out here.

The assay addresses Full-length DEMETER (DME) fused with the GAL4 DNA binding domain (Arabidopsis) (UniProt Q8LK56). Nature of the assay: two-hybrid.
Sequence of UniProt Q8LK56 (Q8LK56 whole entry, the tested form may be a part): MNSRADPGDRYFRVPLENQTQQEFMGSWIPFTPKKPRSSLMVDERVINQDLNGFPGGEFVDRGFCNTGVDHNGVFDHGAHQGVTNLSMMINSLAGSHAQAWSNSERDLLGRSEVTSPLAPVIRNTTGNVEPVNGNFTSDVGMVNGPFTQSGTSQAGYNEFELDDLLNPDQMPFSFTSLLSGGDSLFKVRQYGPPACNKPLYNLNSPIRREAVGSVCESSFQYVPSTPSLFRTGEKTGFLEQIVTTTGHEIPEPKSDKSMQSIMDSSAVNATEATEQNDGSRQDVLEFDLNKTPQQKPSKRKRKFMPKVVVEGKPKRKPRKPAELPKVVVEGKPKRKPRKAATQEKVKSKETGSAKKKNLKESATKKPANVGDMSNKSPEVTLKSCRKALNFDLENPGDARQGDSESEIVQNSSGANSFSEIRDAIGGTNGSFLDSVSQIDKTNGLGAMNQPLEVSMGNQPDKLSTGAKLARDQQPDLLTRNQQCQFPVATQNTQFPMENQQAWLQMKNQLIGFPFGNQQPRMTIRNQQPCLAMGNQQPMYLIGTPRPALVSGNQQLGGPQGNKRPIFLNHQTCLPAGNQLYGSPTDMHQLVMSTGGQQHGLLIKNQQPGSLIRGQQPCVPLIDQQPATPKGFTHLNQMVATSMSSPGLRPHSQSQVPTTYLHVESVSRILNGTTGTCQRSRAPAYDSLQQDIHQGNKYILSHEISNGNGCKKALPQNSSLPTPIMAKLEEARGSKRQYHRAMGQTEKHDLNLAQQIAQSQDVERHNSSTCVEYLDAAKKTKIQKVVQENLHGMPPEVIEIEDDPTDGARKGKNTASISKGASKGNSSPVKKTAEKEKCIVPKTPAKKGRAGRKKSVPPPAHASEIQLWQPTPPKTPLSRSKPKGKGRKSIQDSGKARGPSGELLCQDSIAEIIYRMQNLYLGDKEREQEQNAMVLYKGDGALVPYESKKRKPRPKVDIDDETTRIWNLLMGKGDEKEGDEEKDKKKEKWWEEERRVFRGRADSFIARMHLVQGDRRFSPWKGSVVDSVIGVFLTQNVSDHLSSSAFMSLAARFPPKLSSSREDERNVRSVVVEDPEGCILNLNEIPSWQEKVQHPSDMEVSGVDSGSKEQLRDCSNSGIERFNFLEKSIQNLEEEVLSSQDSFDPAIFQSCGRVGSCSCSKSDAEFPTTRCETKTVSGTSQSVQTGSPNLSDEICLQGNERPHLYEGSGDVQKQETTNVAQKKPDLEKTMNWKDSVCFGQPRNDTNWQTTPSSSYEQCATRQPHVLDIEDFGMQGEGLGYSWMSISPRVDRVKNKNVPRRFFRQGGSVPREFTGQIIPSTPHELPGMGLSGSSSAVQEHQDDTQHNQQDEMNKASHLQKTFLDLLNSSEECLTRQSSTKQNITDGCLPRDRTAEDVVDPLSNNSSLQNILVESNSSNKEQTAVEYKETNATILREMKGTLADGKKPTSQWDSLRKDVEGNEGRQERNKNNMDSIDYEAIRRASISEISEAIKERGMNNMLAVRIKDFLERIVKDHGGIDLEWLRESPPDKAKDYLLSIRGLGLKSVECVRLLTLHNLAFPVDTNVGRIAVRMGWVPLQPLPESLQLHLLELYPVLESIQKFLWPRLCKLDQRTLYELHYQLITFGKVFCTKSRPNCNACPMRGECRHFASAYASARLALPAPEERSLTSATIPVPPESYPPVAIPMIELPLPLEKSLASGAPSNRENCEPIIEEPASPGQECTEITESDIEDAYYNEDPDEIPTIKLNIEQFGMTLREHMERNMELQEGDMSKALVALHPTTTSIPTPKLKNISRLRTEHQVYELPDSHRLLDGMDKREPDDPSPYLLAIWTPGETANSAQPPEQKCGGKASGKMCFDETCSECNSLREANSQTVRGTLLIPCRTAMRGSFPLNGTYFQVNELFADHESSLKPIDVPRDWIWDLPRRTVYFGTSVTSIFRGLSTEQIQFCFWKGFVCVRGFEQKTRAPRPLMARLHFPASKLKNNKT

The substance “Histone H1.2 fused with the GAL4 activation domain (natural protein)” displayed a β-galactosidase activity of 1.67 units.
